The source of these data is publication PMC11481484.

Holding throughout (assay): cross-linking + co-IP; BHK-21 cells 42 h post-electroporation with WT or mutant viral RNA cross-linked with 1 mM DSP in PBS, 10 min, room temperature, quenched with 125 mM glycine; lysis buffer 2 (10 mM sodium phosphate pH 7.4, 50 mM NaCl, 1% Triton X-100); IP with mAb E1-20 or control mAb; cross-link reversed by DTT; western blot with RuV pAb
For orientation: In western blotting, separated proteins are transferred to a membrane and probed.

Experiment [1] deals with Rubella virus E2 envelope glycoprotein of the second-site revertant (N277I in the Y281A background) (Rubella virus (RuV)).
Experiment [2] deals with Rubella virus E2 envelope glycoprotein, Y281A mutant (Rubella virus (RuV)).
The target of experiment [3] is Rubella virus E2 envelope glycoprotein, pseudorevertant Y281V (Rubella virus (RuV)).

“Rubella virus capsid protein, D215A (second-site revertant) (from UniProt P08563 1-300) (natural protein)”: the Cp/E2 ratio in the E1 mAb IP, normalised to WT (ratio, WT set to 1) in experiment [1] is 0.85.

B1: Rubella virus capsid protein, wild type (natural protein)
chain: MASTTPITMEDLQKALEAQSRALRAGLAAGASQSRRPRPPRQRDSSTSGDDSGRDSGGPRRRRGNRGRGQRKDWSRAPPPPEERQESRSQTPAPKPSRAPPQQPQPPRMQTGRGGSAPRPELGPPTNPFQAAVARGLRPPLHDPDTEAPTEACVTSWLWSEGEGAVFYRVDLHFTNLGTPPLDEDGRWDPALMYNPCGPEPPAHVVRAYNQPAGDVRGVWGKGERTYAEQDFRVGGTRWHRLLRMPVRGLDGDTAPLPPHTTERIETRSARHPWRIRFGAPQAFLAGLLLAAVAVGTARA
For B1, the Cp/E2 ratio in the E1 mAb IP, normalised to WT (ratio, WT set to 1) in experiment [2] is 0.31; in experiment [3], 0.46.
